Measured values reported in patent publication US20250295803A1, “5T4 ANTIBODY-DRUG CONJUGATES AND USES THEREOF” (EXELIXIS, INC., priority 2022, published 2025).

Target: T1, mouse 5T4 on transfected HEK293 and CHO cells (mouse, UniProt Q9Z0L0 32-426)
T1 sequence: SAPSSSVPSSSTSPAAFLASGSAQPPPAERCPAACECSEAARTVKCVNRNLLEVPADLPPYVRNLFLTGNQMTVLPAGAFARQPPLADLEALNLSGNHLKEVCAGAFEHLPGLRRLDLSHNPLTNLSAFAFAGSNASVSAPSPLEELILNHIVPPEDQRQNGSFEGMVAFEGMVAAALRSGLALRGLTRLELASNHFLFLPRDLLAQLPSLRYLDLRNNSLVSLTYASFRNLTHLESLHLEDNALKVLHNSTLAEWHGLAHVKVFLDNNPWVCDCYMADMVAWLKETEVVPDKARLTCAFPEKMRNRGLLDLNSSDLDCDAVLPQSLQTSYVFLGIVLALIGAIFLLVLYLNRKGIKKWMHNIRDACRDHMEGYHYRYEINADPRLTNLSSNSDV
Assay: cell binding on transfected HEK293 and CHO cells

- binding result: no binding
B1: mAbA4 (antibody, V domains shown)
VH: EVQLVESGGGLVQPGGSLRLSCAASGFTFSRYYIHWVRQAPGKGLEWVAFISPGGSYTYYADSVKGRFTISADTSKNTAYLQMNSLRAEDTAVYYCAREYYSMGVLDYWGQGTLVTVSS
VL: DIQMTQSPSSLSASVGDRVTITCRASQSVSSAVAWYQQKPGKAPKLLIYSASSLYSGVPSRFSGSRSGTDFTLTISSLQPEDFATYYCQQAYESPYTFGQGTKVEIKR
notes: also called Antibody mAbA4
